Experimental data published in US7267822.
Where no end group is shown, it is not given here.

Target: recombinant hsc70 (Stressgen, Victoria, Canada)
Assay: competition ELISA on coated hsc70 against biotinylated-2702.75-84 (3 uM)

IC50: 7 µM
B1: peptide 2702.75-84 (peptide)
peptide: RENLRIALRY-NH2
modifications: also: acetate salt
